Experimental data taken from a protein production outcome set (Wang et al. 2014).

Assay: label from the status in PepcDB records

| Sequence | protein production |
| --- | --- |
| MSIEAKFKKLGTDNAPGQEVRQSAAGLEALIRGAPIEGRPVDFSHGDVDAHEPTPGAFDLFSAGVQSGGVQAYTEYRGDLGIRDLLAPRLAAFTGAPVDARDGLIITPGTQGALFLAVAATVARGDKVAIVQPDYFANRKLVEFFEGEMVPVQLDYVSADETRAGLDLTGLEEAFKAGARVFLFSNPNNPAGVVYSAEEIGQIAALAARYGATVIADQLYSRLRYAGASYTHLRAEAAVDAENVVTIMGPSKTESLSGYRLGVAFGSRAIIARMEKLQAIVSLRAAGYSQAVLRGWFDEAPGWMEDRIARHQAIRDELLHVLRGCEGVFARTPQAGSYLFPRLPKLAVAPAEFVKILRLQAGVVVTPGTEFSPHTADSVRLNFSQDHEAAVAAARRIVTLVERYRA | not failed |
| FLTEFINYIKKSKVVLLEDLAFQMGLRTQDAINRIQDLLTEGTLTGVIDDRGKFIYITP | not failed |
| MSAPCCGCGKTLDVAAMHARQRRVLWWVLAINAGSFALMLAGALHSGAASLLSGSLDNLGDALTYALSLAVVGASMAAKARVALLKAGLILLAALAVAAEIGWKLAHPQVPLFQSMGLVAAANFLANLVCLRLLWPYRDGDINLASAWACSRNDVYEGVAVLAASGAVWALGSGWPDLLIAVGLLVVFLRSAWQVARRAWAELGTAG | failed |
| MRILLTTLNAKYIHVNLALRYLRACCRDLPHTFILDEFTINDHPEHIAAAIYRHRPDLVAFSCYIWNIEPTLAVAAILKKVRPELTILCGGPEVSFDTAAFLAQNPQIDLVITGEGEIPFRALLEQLAGQQRPPAGNREEPLTASMYRPAGGRPAPGPVPDPAAIPGLAWRRGAETIVNPPAPPLRDLDTIPFPYQEDLDAAGNELSQRTVYYETSRGCPFACGFCLSSTTEGLRYFSLERVRDDLERLLKAGVREIKFVDRTFNAHKKRALAIWEFLLSRRPRARCYFEIAGDRLDEEMLAHLNRVPPDLFQFEIGVQTIDAGVNARCNRRQDWARLAANTRRLREMGSIRLHLDLIAGLPGETYAGVGESFDAVVALKPHEIQLGFLKLLKGTTLRARADEFGYLFLDRPPYQVLASSAITYEEMLRLHAIEGLLKYYGNSHLADHAFAYLAATAFDGSYFAIYEALAAWWEARGLLRRGHSQRDLFNHLASFAIHLARGIATRVTVPPLPGYHDSILEINSHGDTPASGAEHSGCARNLTPAQLDRFYQLLKFDCLCRDRSRNFPGWMPPSPLTEEERSNWMARITTPRSMEKYMPGLVKESPANLRRHGFIELFPCHPERPEEDNPTIVFFYYGPPGSETRVYYLQAPPLVV | failed |
| MNPRLALALKLLEAGLVESAAIPVAQALERDPDDPRAHHLAGLIARRGGDGALALAAFTRGLAVAADDAPLRIERAGLLLDLGRAEEALADLAVALALAPDHQAVLSTQGRALIDLGRPGEALAPLRRARALAPDDVAPAHNLGRALLALDRPDEALPLLEAAVARAPGAIDPRADLAEALRRLDRPGDAAQLLRAVLADAPGRADLADALAGALLAAGAVDESVAVLRASLDKAPTHGAGWVNLAAALIETGALDEATAAADRALALDPDDADAKVNRAFARCLADDYEQGFADYAHRWRTAAFQRPYPPVTAPPWAGEPLGEGTLLVRGEQGLGDQIMAARFLPWLSKRPDRPRRIVFECHPCLHRLLAEGLEAGIDLLAMGRPPPPVAAWIGALDLARMAGVTAGVMPVDVPYLKARPPVPPLAPPLPPGGRGRLGLVWAGKTRPRDRSCPLEPLAGLCVDQGWTVHALQLGPRRADLAGLPAGLGVIDEGDRLGDMAATASVMAGLDLVVAVDTAVAHLAGALGLPCALLLLATPDWRWGQKASRTVWYPSLRLFRQPHPGDWDGAFDAVRRAFAQGWPLS | failed |
| MRVIVTEYQPAWVEQFEEEAQALKQILKENCLKVEHIGSTSVPNLAAKPIIDFLVIVEEIEKVDLLQWEFERIGYEYMGEFGLSGRRYLRKGPIKRTHHVHIYQFDNTQEILRHLAFRNYLRENPAIATTYGTLKKQLAQAHPDSIDKYMDGKDAFIKKIEKEALKKYWE | not failed |
| MGLGRQSLNIMTFSGQELTAIIKMAKSMVMADGKIKPAEIAVMTREFMRFGILQDQVDLLLKASDSIEASQAVALIARMDEERKKYVASYLGVIMASDGDIDDNELALWTLISTLCGLPTMTVMEAINNMKNL | not failed |
| MRQPAIAAVDLGASKVTCFIMKADGVHRDNRTLTTAGVGYVQSRGVRGGAIVNLDEAAQAIAQAVERAETVAGVSVQGVSVCTAGGQLASHRVHTQVSLGARPIGDGDLSRAIASALAQVRIPGRKPIHLLPIAWSVDGQRGIRDPRAMFGRALGLELLVVSVNENIFHTLAHCVERAHLSFEGIVAAPFASALAALEEDEMDLGAVCIDMGGGSTSVAVFNNGALCHVDSLAVGGGHVTQDIARGLQTSVVGAERIKTLHGSAIASANEDREMIEAPPRGDDPGAGPVIAPRSLLKGIIQPRVEETLELLRERLKASGAPVEPGAGIVLTGGASQLAGVREVAVRVFDRPVRLGRPRRVPHLADAASGPAFCAAAGVLHRTAFGPREAVSSKALAGGVARKRPIDPNASPMAKAAAWLRDNL | failed |
| MEALVRCLRSGQFLLIIDNLESVLQPDRQWGSLFYGDFFQAWIESGGNSKVLVTTRERPELKGFEWLTLKGLQVDEGVALLTALGIKGNLGEFVELVDGHPLLLRLVADLLKEEYPQDPDLSRLADLGLGNLQQLLTDSQVVGVHRRENVGMVLVLDASFHRLSELQKALLLNISVYRGAVDSAAAVAMLPGNSAAEIEKELRNIVKRSLLVEKLNGKRRFEFQPVVLEYVRYKAGDQSEAHQRAIDYYRSVAKQPPWTTKDDVREYLEIFDHFYQLQDYDSAFDNIRVCSKFLGLCGFFVDKVELYGQLISKWKEIGERENWNYGASLTALGNAYRYLGEYQRAIELFQQSLEIFRDIGDRNGVSNSLIGLGNTYNSVGEYQRAIELFQQSLEISRDIGDRNGVGGSLMGLGNAYNSVGEYQRAIELFQQSLEISRDIGDRNGVGNSLIGLGNAYHSLGEYQRAIEFRQQSLEIFRDMGDRNGVSISLNNLGNTYYFLGEYQRAIEFHQQSLEISRDIGDCNGVGRSLNNLGNAYYSLGKYQQAIEFHQQSLEIKRDIGDRNGVGTSLNNLGTAYSSLGKYQRAIELFQQSLEIKRDIGDRNGVGTSLMNLSNAYYRCGKIREAFAVWHQAESIFQELQLPFEAMPYPQWLKSLIKFAQRGWFQFILCFIFGLIAFPFALVWLILLFLWPSISSQFRR | failed |
| AIAVSPLKTRCCSPSSQQQASEAREIEQPSTVWELDFYSRPVYGKDNKRIWELIVVDESFLLCHVESVPNDMINSAELRKRVERLLEQVTVKPKVVKFSRMPMFNMISLALKDLGFEVKPSRRTYRLYHVLRDREANIYSKMPGYRSENTLSTSYLYSTERLPDALRGEKFAFCTADYSFLYELQSSDTIPYCDIFNTGDSILLEKELPGIIVYSERADSLASWTAGAEVSFIKFREEELELVLECGINSHYRLAKIAEDHRLVEEAKTFEQMKWHMKGFHFYAIQSLKETSGTSHIKGLWLLNDFMEQ | not failed |
| MGTYVEPSKLSYGEYLESWFNTKRHSVGIQTAKVLKGYLNSRIIPSLGNIKLAKLTSLHMQNYVNSLRDEGLKRGTIEKIIKVIRNSLEHAIDLELITKNVAAKTKLPKADKEELEHHHHHH | failed |
| MHSPHDPYVRVRDAREHNLKGVDVDVPRDVLAVFTGVSGSGKSSLAFGTVYAEAQRRYFESVAPYARRLIHQIGAPKVGGITGLPPAVSLQQRRATPTSRSSVGTVTNLSNSLRMLFSRAGTYPPGAERLDSDAFSPNTAAGACPECHGLGRVHRTTEELLVPDPSLSIRDGAIAAWPGAWQGKNLRDVLDALGYDVDRPWRELPAEAREWILFTDEQPVVTVHPVREAGRIQRPYQGTYMSARRYVLKTFADSKSATLRAKAERFLNSAPCPVCGGGRLRAEALAVTVGGRTVAELAALPLAELPRLLPTEGEAAKVLAEDLISRIAPVVELGLGYLSLDRPTPTLSAGELQRLRLATQLRSGLFGVVYVLDEPSAGLHPADTEALLTVLERLKAAGNSVFVVEHHLGVMRGADWIVDVGPLAGEHGGRVLYSGPVDGLARVAESATARHLFDRSPAPVREVRTPRGAVTIGPVTRHNLRGVTVRVPLGVLTAVTGVSGSGKSTLVGEITEDLPGVDRLVSVDQRPIGRTPRSNLATYTGLFDVVRKVFAATDRARERGFGVGRFSFNVPGGRCETCQGEGFVSVELLFLPSTYAPCPDCGGARYNPETLEVAYRGRNIAEVLDLTVEGAAQFFTDTPAVARSLAALLDVGLGYLRLGQPATELSGGEAQRIKLASELQRGRRGHTLYLLDEPTTGLHPADVEVLMRQLHGLVDAGHTVVVVEHDMSVVAGADHVIDLGPGGGDAGGRIVAEGTPARVAGAAGSATAPYLARALDGGERR | failed |
| MDFLPIFVIIASVMTAVSVYLIYLVKKGINGIGFLLVLYLSGSMLTMFISLSIALSNTALTTEILALTVNTAYMIVGLVSILLLGASRRKIESRKWYTVLLFSLLMTISEAVMGESFYSILTKSIGNPLIGTENYWFYAVMLAEMTFTLVYSFNSLTRQIRNYLLVTLPIMVVSPVILPTFSIWLSSLLMIVATIIIYDTLYRDRLKKTQETFTSLELMLIFTLMMAGIFTYYVTSSWYLYDISMILGMTWFIYRAIQGPSSIKGNYLRDSRWTFAFVLMTFVMEWFMGAVLDFASSYFSPGVEGFISSLPLGFVNPFSYFGAGALFDFLSIFGSVTGSVWFLVMMGLEMGTLAIFRIKEVRLRENRIRLALMVSAFAIYAVYIPSFSPLASKIPYIPYMWSMGLGTLGPVSTDYLLSGIVGTYVLSAVLSFLFGSRQICSVTCTAPTMYQGTFYNSLKVYNRTSSFARKTLSSKLRPWYKLIAIAVWSSLLAFAVISYFDQKGILNITIFGNDPTMFLYSFYFNFLWYVVFISIPFSGNYACVTQGWCSWGTFNQFFGGLGLFRLKVKDPELCVKCETKACSKACPVGNTDLPGNFIKKGEFKSSRCIGVGDCAEACPYDNIMFYDVRSWLKEKIKGDKM | failed |
| MEQSFFRELLHYQRPKDNPFRLVFAGLVMFSILFLGYINHQLLISSFGSLGIFTFLYYQPLPLKQLMTRLSVVGSYLFLGNLLGMLSTHIAWLIPIVVALVGFGGRFFFEVYDISKPGAFFGVMVTAMGASTSIPLAKIPFMSGCMLLGIGFSILFALVLHFTEKEISVPLAKRSLRERIYQHPEAPLDSIYYSFVLFFAVYISESLHLQNPYWLVVSCASILQGDNLRAIKQRNIQRIFGTTIGLVISAFLLNLALTTFESIVVITILFVTVEYFIRRNYGLAQFFTTPMALMLSLLVRQQYVITLIQFRFLGIVLGSLLGLSSSVAIHRCSNVL | failed |
| MSRNEVLLNGDINFKEVRCVGDNGEVYGIISSKEALHIAQNLGLDLVLISASAKPPVCKVMDYNKFRYQNEKKIKEAKKKQKQIEIKEIKLSTQIAQNDINYKVKHAREFIESNKHVKFKVVLKGRESQNSKAGLDVLFRVQTMMQDLANPEKEPKTEGRFVSWMFVPKAKEAPKNEKKTKENNPPFNRINLMKGENHAKNED | failed |
| MSSVSDVAFFMEVVKAGTLSGAAQELGVSTAAVSRRLANLEVRLGIRLLNRTTRRAAVTYEGELYLAEGKKILGELEELEQRLASAHSVPKGLLRVNATFGFGRQFIAPAIADFVELHPDVDVQLSLSDRPVNLIEDGFDVCIRFGDLPDARLTSRKIACNRRLLCASPGYLERFGIPASPMDLQRHRCIVIRESDETYGAWHLYSGAAQANVKVRGTVSTNDGEVAVDWALRGLGILLRSEWNVAPYLRSGRLREVLGDWRFPPADIHAVYPMKSNLSAKVRAFVSHLDKHFEPYRPRAEGKSRW | failed |
| MNLYSLLLSLITGCFLLAQGGTSFSSPVETEKSAVTAQSILEKADEIRFPQDSFQVNVAIRTAAPDHAEDLYRYQVLSKGNENSIVMITEPASERGQAILMKGRDLWVFMPSVSQPIRLSLSQRLTGQVANGDIARANFTGDYHPQLLRNESIDDEDYYVLELTGIDRSVTYQKVLLWVNQSNFRPYKAEFYSVSGRLLKTSRYENFDNILGEMRPTRIIMEDALKSGEVSVLDYSDMKLRDLPDKIFTKDYLKRLE | failed |
